Laboratory results: patent publication US20250197503A1 (published 2025)

B1: h_Nb2 (expressed from pFUSE-hIgG1-Fc) (Fc fusion)
chain: DVQLQESGGGLVQPGGSLRLSCAASGFTFGDRWMYWLRQAPGKGLEWVSSINPAGRSTYYADSVKGRFTISRDNAKNTLYLQMNSLKSEDTAVYYCTKDPGGYQKGQGTQVTVSS
B2: h_Nb1 (expressed from pFUSE-hIgG1-Fc) (Fc fusion)
chain: DVQLQESGGGLVQPGGSLRLSCAASGFTFSSYAMSWVRQAPGKGLEWVSDINSGGDNTDYADSVKGRFTISRDNAKNTLYLQMNSLKPEDTAVYYCARGPKLCFSSWGQGTQVTVSS

Target: human PD-L1 on stably transfected cell line HEK293T/hPD-L1 (human, UniProt Q9NZQ7 19-290)
Sequence (Q9NZQ7 19-290): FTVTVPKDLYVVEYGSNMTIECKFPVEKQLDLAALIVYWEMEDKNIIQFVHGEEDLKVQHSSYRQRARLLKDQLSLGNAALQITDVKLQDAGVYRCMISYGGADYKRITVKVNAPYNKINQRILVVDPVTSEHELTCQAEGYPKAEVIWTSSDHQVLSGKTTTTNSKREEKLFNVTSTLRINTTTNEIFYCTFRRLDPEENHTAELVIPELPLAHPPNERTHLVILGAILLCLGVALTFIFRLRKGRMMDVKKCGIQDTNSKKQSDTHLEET
Assay: FACS blocking of human PD-1/PD-L1 binding

Row | Binder | IC50 [µg/mL]
1 | B1 | 0.106
2 | B2 | 0.751
